{
  "source": "patent US20190276549A1",
  "key": {"[1]": {"target": "C1q (human) (UniProt P02745)", "sequence (P02745 23-245 limits assumed, chain 1 of 3)": "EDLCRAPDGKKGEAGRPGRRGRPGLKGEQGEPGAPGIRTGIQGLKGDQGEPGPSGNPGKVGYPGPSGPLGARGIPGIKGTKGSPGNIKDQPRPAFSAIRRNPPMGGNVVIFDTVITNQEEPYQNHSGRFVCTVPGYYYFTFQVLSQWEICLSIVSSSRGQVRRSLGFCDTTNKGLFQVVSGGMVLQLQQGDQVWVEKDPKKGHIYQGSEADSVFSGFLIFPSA", "sequence (P02746 28-253 limits assumed, chain 2 of 3, further chain)": "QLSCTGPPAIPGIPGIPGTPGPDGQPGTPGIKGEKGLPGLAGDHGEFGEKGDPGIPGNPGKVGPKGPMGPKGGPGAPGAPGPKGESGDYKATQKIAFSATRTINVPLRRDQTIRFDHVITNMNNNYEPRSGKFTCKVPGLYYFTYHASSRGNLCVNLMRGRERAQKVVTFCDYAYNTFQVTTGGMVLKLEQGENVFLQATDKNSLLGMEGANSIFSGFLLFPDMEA", "sequence (P02747 29-245 limits assumed, chain 3 of 3, further chain)": "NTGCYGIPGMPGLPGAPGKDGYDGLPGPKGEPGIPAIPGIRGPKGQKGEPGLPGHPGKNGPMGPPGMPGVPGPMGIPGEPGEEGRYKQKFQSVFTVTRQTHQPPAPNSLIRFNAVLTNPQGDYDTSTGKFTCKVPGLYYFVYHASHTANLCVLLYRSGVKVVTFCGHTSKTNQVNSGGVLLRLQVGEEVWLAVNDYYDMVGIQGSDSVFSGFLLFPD", "assay": "cell-based or functional assay"}, "[2]": {"target": "CD52 (human) (UniProt P31358)", "assay": "QIFIKIT indirect immunofluorescence, flow cytometry, 10 µg/mL antibody, Daudi cells"}, "[3]": {"target": "CD52 (human) (UniProt P31358)", "assay": "QIFIKIT indirect immunofluorescence, flow cytometry, 10 µg/mL antibody, REH cells"}, "[4]": {"target": "CD52 (human) (UniProt P31358)", "assay": "QIFIKIT indirect immunofluorescence, flow cytometry, 10 µg/mL antibody, U-266B1 cells"}, "[5]": {"target": "CD52 (human) (UniProt P31358)", "assay": "QIFIKIT indirect immunofluorescence, flow cytometry, 10 µg/mL antibody, U-698-M cells"}, "[6]": {"target": "CD52 (human) (UniProt P31358)", "assay": "QIFIKIT indirect immunofluorescence, flow cytometry, 10 µg/mL antibody, Wien 133 cells"}, "[7]": {"target": "CD52 (human) (UniProt P31358)", "assay": "QIFIKIT indirect immunofluorescence, flow cytometry, 10 µg/mL antibody, Ramos cells"}, "[8]": {"target": "CD52 (human) (UniProt P31358)", "assay": "QIFIKIT indirect immunofluorescence, flow cytometry, 10 µg/mL antibody, Raji cells"}, "[9]": {"target": "C1q (human) (UniProt P02745)", "assay": "cell-based or functional assay", "remark": "listed apart in the source"}},
  "note": "Read-outs that look alike come from different tables or passages of the source.",
  "data": [
    {"substance": "IgG1-Campath variant E345R with the K322E mutation (antibody)", "values": [
      {"measurement": "CDC on Wien 133 cells, 20% NHS: area under the dose response curve, IgG1-Campath = 100%", "setting": "[1]", "result": 60, "unit": "%"}
    ]},
    {"substance": "IgG1-Campath (antibody)", "values": [
      {"measurement": "antibody binding capacity (Molecules/cell) (molecules/cell)", "setting": "[2]", "result": 7280},
      {"measurement": "antibody binding capacity (Molecules/cell) (molecules/cell)", "setting": "[3]", "result": 135000},
      {"measurement": "antibody binding capacity (Molecules/cell) (molecules/cell)", "setting": "[4]", "result": "1.46e+06"},
      {"measurement": "antibody binding capacity (Molecules/cell) (molecules/cell)", "setting": "[5]", "result": 93700},
      {"measurement": "antibody binding capacity (Molecules/cell) (molecules/cell)", "setting": "[6]", "result": 332000},
      {"measurement": "antibody binding capacity (Molecules/cell) (molecules/cell)", "setting": "[7]", "result": 179000},
      {"measurement": "antibody binding capacity (Molecules/cell) (molecules/cell)", "setting": "[8]", "result": 85500}
    ]},
    {"substance": "IgG1-005-E345R (antibody)", "values": [
      {"measurement": "CDC on Daudi cells, 20% NHS: EC50", "setting": "[9]", "result": 0.01, "unit": "µg/mL"}
    ]},
    {"substance": "IgG1-005-E430G (antibody)", "values": [
      {"measurement": "CDC on Daudi cells, 20% NHS: EC50", "setting": "[9]", "result": 0.01, "unit": "µg/mL"},
      {"measurement": "CDC on Daudi cells, 20% NHS: EC50", "setting": "[1]", "result": 0.005, "unit": "µg/mL"}
    ]},
    {"substance": "IgG1-005-AA-E345R (antibody)", "values": [
      {"measurement": "CDC on Daudi cells, 20% NHS: EC50", "setting": "[9]", "result": 0.14, "unit": "µg/mL"},
      {"measurement": "CDC on Daudi cells, 20% NHS: maximal kill", "setting": "[9]", "result": 74.3, "unit": "%"}
    ]},
    {"substance": "IgG1-005-AA-E430G (antibody)", "values": [
      {"measurement": "CDC on Daudi cells, 20% NHS: EC50", "setting": "[9]", "result": 0.06, "unit": "µg/mL"}
    ]},
    {"substance": "IgG1-005-D270R/E430G (antibody)", "values": [
      {"measurement": "CDC on Daudi cells, 20% NHS: EC50", "setting": "[1]", "result": 0.15, "unit": "µg/mL"}
    ]},
    {"substance": "IgG1-Campath-E345K (antibody)", "values": [
      {"measurement": "CDC on Wien 133 cells, 20% NHS: area under the dose response curve relative to IgG1-Campath", "setting": "[1]", "result": 2.4, "unit": "fold"},
      {"measurement": "CDC on Wien 133 cells, 20% NHS: area under the dose response curve, IgG1-Campath = 100%", "setting": "[1]", "result": 240, "unit": "%"}
    ]}
  ]
}
